Measured values published in patent publication US20100129369A1 (Eli Lilly, published 2010).

Tests used:
Assay in all cases: ELISA, coated ECD-Fc, antibody 0.357 ng/mL
Human c-Met-Flis-Fc ECD = biological target: T1, Human c-Met-Flis-Fc ECD (human)
T1 construct: also called human c-Met extracellular domain (ECD)-Fc-Flis fusion; Human cMet-ECD-Fc-Flis
Description: (§1) Wells of 96-well EIA/RIA high binding plates (Costar, #2592) are coated with 100 μL of 1 μg/mL human c-Met extracellular domain (ECD)-Fc-Flis fusion (SEQ ID NO:72), RON-ECD-Fc (R&D Systems, #1947-MS), or PlexinA2-ECD-Fc (Abnova, Taipei, Taiwan #H00005362-P01) in coating buffer (BioFX Labs, # COAT-1000-01) overnight at 4° C. […] After the plates are washed, 100 μL/well of substrate solution (BioFx, #TMBW-1000-01) are added and the plates are incubated for 10 min. at room temperature. 100 μL/well of stop solution (BioFx, # LSTP-1000-01) are added to stop the reaction. The colorimetric signals are developed and read at 450 nm using a SpectraMax 190 plate reader (Molecular Devices, Sunnyvale, Calif.). c-Met antibody binding to c-Met, RON and PlexinA2 ECDs is proportional to color signal production.

RON-ECD-Fc = biological target: T2, RON-ECD-Fc (human, UniProt Q04912 25-957)
T2 construct: extracellular domain; Bought reagent; not shown: Fc part of the bought fusion
T2 sequence (looked up): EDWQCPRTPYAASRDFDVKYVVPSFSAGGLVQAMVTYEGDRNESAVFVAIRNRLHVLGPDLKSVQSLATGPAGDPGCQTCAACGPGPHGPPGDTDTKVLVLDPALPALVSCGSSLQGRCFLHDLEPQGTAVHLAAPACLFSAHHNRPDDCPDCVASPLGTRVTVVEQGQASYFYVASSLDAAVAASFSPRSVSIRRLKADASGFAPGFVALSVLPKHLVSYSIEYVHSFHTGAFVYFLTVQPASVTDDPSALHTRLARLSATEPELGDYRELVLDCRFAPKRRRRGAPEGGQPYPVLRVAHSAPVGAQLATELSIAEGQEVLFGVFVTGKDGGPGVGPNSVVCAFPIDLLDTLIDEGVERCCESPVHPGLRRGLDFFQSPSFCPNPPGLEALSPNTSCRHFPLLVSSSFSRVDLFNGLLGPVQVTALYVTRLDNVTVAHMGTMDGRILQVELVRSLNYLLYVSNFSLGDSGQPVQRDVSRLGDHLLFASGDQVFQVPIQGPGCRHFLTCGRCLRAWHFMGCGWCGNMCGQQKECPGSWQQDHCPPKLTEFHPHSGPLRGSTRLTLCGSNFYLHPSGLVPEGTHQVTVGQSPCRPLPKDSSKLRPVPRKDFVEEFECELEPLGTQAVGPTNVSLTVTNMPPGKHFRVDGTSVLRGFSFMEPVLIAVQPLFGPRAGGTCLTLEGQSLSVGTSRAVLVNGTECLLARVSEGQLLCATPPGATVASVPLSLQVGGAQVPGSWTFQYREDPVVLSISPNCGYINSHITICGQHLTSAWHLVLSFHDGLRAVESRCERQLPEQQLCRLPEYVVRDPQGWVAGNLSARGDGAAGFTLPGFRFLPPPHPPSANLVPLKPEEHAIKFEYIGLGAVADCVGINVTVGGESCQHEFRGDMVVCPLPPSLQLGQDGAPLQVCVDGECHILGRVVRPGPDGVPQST
Description: as §1

PlexinA2-ECD-Fc = biological target: T3, PlexinA2-ECD-Fc (human, UniProt O75051 35-1237)
T3 construct: extracellular domain; Bought reagent
T3 sequence (looked up): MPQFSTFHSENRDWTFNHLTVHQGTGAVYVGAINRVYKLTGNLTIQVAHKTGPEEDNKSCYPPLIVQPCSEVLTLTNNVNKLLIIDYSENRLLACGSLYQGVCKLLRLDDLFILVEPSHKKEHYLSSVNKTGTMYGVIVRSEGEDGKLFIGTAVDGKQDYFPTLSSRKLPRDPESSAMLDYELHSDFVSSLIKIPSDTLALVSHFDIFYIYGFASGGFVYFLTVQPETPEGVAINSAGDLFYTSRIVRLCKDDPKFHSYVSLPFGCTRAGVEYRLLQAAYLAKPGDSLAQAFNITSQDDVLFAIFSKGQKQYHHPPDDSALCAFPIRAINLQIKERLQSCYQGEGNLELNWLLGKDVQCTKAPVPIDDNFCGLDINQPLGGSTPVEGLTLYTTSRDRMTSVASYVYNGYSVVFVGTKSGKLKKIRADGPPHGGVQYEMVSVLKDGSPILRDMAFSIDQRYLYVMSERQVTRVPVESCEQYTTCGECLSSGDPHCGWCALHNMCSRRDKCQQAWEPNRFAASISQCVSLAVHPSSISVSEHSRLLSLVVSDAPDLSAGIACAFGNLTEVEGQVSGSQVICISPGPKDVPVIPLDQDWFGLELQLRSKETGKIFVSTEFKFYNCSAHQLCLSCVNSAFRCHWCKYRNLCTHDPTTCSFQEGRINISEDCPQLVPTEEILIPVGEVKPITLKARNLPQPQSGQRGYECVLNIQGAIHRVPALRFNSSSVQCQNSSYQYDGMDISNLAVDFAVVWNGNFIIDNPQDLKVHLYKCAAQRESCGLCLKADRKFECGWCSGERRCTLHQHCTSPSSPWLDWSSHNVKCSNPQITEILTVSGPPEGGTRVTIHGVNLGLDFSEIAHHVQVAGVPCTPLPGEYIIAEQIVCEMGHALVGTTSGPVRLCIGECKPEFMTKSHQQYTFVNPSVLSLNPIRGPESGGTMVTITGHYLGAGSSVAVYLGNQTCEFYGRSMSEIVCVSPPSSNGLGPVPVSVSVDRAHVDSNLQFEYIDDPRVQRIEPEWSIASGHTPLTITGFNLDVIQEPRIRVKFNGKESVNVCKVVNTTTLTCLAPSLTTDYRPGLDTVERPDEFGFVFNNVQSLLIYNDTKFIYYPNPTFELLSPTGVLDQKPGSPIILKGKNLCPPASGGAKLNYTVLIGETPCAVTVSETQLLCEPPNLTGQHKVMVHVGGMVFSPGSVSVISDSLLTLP
Description: as §1

T1 sequence (chain, as listed by the source limits assumed): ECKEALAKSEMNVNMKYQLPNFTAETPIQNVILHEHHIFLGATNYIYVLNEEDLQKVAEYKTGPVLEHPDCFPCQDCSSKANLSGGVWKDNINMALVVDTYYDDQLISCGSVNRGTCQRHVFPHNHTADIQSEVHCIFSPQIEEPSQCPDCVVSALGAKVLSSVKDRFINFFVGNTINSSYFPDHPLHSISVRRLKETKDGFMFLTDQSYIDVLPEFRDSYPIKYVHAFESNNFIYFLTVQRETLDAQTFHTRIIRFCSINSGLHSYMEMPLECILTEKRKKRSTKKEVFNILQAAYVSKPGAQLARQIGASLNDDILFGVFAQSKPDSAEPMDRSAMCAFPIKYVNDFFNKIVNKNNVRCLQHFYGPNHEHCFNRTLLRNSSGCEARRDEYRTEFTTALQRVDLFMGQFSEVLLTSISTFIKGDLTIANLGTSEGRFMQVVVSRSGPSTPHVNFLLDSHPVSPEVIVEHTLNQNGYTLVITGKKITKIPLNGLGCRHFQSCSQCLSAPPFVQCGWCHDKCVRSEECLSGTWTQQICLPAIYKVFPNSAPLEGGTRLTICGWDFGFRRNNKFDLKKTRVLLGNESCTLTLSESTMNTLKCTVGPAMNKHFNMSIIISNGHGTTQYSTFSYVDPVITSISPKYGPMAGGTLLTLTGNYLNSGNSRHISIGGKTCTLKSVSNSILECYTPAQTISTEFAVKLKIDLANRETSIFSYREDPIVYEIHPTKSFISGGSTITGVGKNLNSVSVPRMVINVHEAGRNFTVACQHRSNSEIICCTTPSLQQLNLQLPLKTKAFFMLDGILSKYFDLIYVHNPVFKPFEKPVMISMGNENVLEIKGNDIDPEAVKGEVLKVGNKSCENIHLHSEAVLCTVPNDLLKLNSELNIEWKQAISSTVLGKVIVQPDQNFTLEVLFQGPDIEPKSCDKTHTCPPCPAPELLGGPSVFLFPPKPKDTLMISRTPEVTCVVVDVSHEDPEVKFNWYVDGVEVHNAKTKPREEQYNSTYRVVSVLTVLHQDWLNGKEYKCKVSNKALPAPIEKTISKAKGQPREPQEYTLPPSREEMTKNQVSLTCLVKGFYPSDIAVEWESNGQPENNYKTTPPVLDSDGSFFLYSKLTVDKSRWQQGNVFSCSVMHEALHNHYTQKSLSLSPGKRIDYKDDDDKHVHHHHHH

Average A450 nm (Human c-Met-Flis-Fc ECD): 0.813 A450 nm
Average A450 nm (RON-ECD-Fc): 0.08 A450 nm
Average A450 nm (PlexinA2-ECD-Fc): 0.107 A450 nm
B1: C8-6 (antibody, human IgG2, kappa, V domains shown)
VH: QVQLVQSGAEVKKPGASVKVSCKASGYTFTDYYMHWVRQAPGQGLEWMGRVNPNRGGTTYNQKFEGRVTMTTDTSTSTAYMELRSLRSDDTAVYYCARTNWLDYWGQGTTVTVSS
VL: DIQMTQSPSSLSASVGDRVTITCSVSSSVSSIYLHWYQQKPGKAPKLLIYSTSNLASGVPSRFSGSGSGTDFTLTISSLQPEDFATYYCIQYSGYPLTFGGGTKVEIKR
notes: Called IgG4, kappa; also called Mab C8-6
